Reference: the domain aggregation screens of Martell et al. (2025)

Test: soluble fraction after stress (log2 fold change); higher = more stays soluble; pooled small domains, quantitative proteomics
Conditions: stress: pH 4
Outline: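 Aggregation propensity here comes from the fold change in the soluble amount of each small protein domain after acid stress, measured in pooled custom libraries by high-throughput quantitative proteomics. The acid stress was pH 4. On the log2 scale, higher values mean more of the domain stayed soluble.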

Row | Sequence | soluble fraction (log2)
1 | HMGILPDDVKLNIKEAKKIGFPIMLKAIHGGGGRGMMIVQSEDEFADAMKITKTEAKNSFGNGDLYFEKFF | 0.0153
2 | HMGITRQQALQQINQSASPKKILNASLGKRGSEFVWDIGYLSKSGKLNYVTYSFRSGEQLNAIKN | -0.504
3 | HMGIVAGGTQSIATLRAIDTTDAQLYPDKILINVEDAGLYRLDRQSTATDDGNQVIKPTVGVGRWLKMTS | 0.0998
4 | HMGIVVDGTMTLEGVAERYGMSVGELARVIGVPPEYSNERLGRLRKSYEFEMDDIRIYIIQKQ | -1.31
5 | HMGKAYMVPDVKNKSVNQAQLLLADKHMNGVVVDSSYVKELPAGIVLDQTPVGGMKVKEGRTVYLTINSD | 0.0742
6 | HMGKDIYLTSGWVEKFDELNEFSNSVDNYDRLNQFGMYENAIIGDTGVIKITDEMIFDLYEKIQVPVEAGP | -1.04
7 | HMGKEDLTAAIKKMTLNDKLDIHKIVANFQTNDSEEVITAVKWLMENNYLLKIKNNYTWNTKEK | 0.22
8 | HMGKHYLLKDDNGTITIYKILEDGTQEVYEKTEISTTYLPQTDNIGIKQGIRVNGDEALNELIENF | -0.821
9 | HMGKKGPELSENEKSIFSILSKSGSMDLTTLKEASGLSNKQWDKGIKGLGKHGLTKVIKTEDALLVEVV | 0.0105
10 | HMGKKYVPGMAVKLSAVPLYAASTSKVPSTHVTGTYYLWDDEVVRGRLRITNLKSRVGISGQVTGWIDKDR | 0.0244
11 | HMGKNIQAIRYKNNMTQDQVVAKLNLMGISITKSTYAKLETNRMNIKASELVALAKLFHTDINAFFSG | -0.0779
12 | HMGKNYYEILGITKSASEEQVRKAFRGLAMEWHPDRNRSADSEERFKEINEAYQVLIDPKKRQMYDQYGR | 0.349
13 | HMGKPSSEELEALGRRTLEENVDVVEEILGGRDPKGKKIKYLEGLMMRALRGQETPEAVRRTLEELIFK | 0.00684
14 | HMGKRGKEMQTAVLAILRASDRPYSAYELLESLKDIYPKIAPPTVYRALAALTQRGQIRRLESLNAFI | 0.22
15 | HMGKRKDFTYTGNYFSEYKNQTFPSLSSFLKLVGKYENYGTIKRRVRFGWDIDEAILRENIN | -0.231
16 | HMGKSKAAQSSLVRSIMHQISDKNRGPMPLSEIIDRASIQSIDEAIVRSLVSRMKEQGEIYEPSLGTYEF | -0.163
17 | HMGKTIIQLATDYLIKNMQPKSLHDIESYVLTRKKIKKSSIGAILLSKPNIFGRTEDGLFGLRIWNNFQYT | -0.14
18 | HMGKTRSTDRTRRAILDAASDLMGKHGTSVSLARIAEAAGMSKGGLLHHFPSRNDLIRALGED | 0.396
19 | HMGKVNTRNRNEGKFYKNGKKKPANWEYRFEAAPVNGKRQQISDAGYPTEKAAYEAGIAAYEKYNSAGSVN | 0.0128
20 | HMGKVTILSNPVKDALVIMGLHNAETIDVRLFDNTGRLVMQGSQSRMDISSLSPGLYILQVNGKILKVIK | -0.222
21 | HMGLASEVKTEDVLNEEKYDFEPDLIGNNNEAIYQNKQTGSYVLFDRNQNKVTKVLSAGEVLNHSKYNE | 0.342
22 | HMGLDQNTLDRVDDINDTLATGIEIGPETRGTIEELNETLANGLKAGFDEETLARVDELLRVVEDGLK | -1.15
23 | HMGLGQRIKARREALGLSQARLGEAVGVSLQAVSNWERDEYLPDTARLPLIARALGLTPGQLME | 0.11
24 | HMGLKDTEVYMPDVRGLIEEEAQTKLKASFLTMKVSYTSSDEVKKGYVISQAPSADSVVLKGASVTVIVS | 0.112
25 | HMGLLVPELTAEENVSLAAMIAGVPRQQARSISADLLNRLGLGQMLDRRMGEMSGGQAQRVAIAPIYGKF | -0.129

Row | Sequence | soluble fraction (log2)
26 | HMGLNVSYRMDGENVVETIIFSGATMIRTVTPTGTMTIKTIENGSTSTAKVNADYSVYKKIYEAQY | -1.03
27 | HMGLPLETVVTHATKLEIVRDGRVSGSIGLSAGVKVDVIALEGDNLQVRYRSLSGRVPVAHTGLAALA | -0.533
28 | HMGLPPIATGVNDNMSFSQAFAAARAEVGAGGAFEWHGRVYGTYYKNEWDGMSAQERHDFEIAAIRGS | -0.0114
29 | HMGLSIPLMGAKASDIEISTLNDEVQRKLKIIVKEQGHENLQRVVPLPSEAREIQAHFINGRLHLR | 0.214
30 | HMGLYPYSGTPADNQEANERRIFDIYSTHLERIFSDFSGATLRTKRLVLRLMQELVHSDPVRMAGILDEL | 0.1
31 | HMGMAQELMESRLTAVFTSGKDQLAVLQRKDGSTLKLGADSKPWRIESFDGRKAVFVSADQQRVERLL | -0.599
32 | HMGMGIGQIIKEKRTALKMTQNELAERLGVSQQSVTGWENNAAVPRESAVRGMMDIFGLSRNELFGEP | 0.0969
33 | HMGMMTLGQRIAQYRKAMGISQEELGGRLGVSRQAVSKWETDAAAPDMENLLALAREFGVSVAELTETP | -0.11
34 | HMGMTRPLFVTDPGLVRIGLVSPIFEKLGSGKLSPQLFDQVKEDPPEQTVFDGVEFARETGIDGVIGFG | 0.0343
35 | HMGMVDKSMYSRYDVGDLVKVLRGPLEGSEGHITEINTDTGTVKVETVFFGRSTVVEVDFSEIDK | -1.35
36 | HMGNAQELQKKLEGLKGISGIEKLESDHYAEKYLVRITQPVDHKNPAAGTFTQRVIVAHVGFDRPTILVT | 0.318
37 | HMGNHRNMSAEEEAAILAPFKARAEAGELVEISEIAKAYQSAVDHPISRGQIYFVLHRHGWRKV | -0.638
38 | HMGNIALAIARFREMIAEDPNLQPVRLHLAMALMADHQDEAARGQLEKLRSDQLPDDIRKIVDDALAALR | -0.487
39 | HMGNIIITPNPASDFIKIISNSPIIKFGFYDIYGNTINKKFNDNSINISDLPVGMYLINLNERYFKLLK | 0.021
40 | HMGNIITQEAAVKLAQDRVPNATLVKIEYDFDDGRPVYEGELREGRWEYEFEIDAATGEFLKWEKD | -0.163
41 | HMGNKWKPIILYLLSNGSMRFGMLNALIPTISKKVLTNQLKELENDGLLLRQSFAEIPPRVEYSLTEKA | 0.165
42 | HMGNLASGAYEQIKRRILSLEYLPGSILQERGLAEELGISRTPVREAIHRLSQEGWLKINSRKNIRVR | -0.482
43 | HMGNLASRVAEQLLDKMRGDSLVPGTRLPSEIAMAKHFGVSRTVMREAIARLKADGLLETRRGSGAFVLAT | -0.0652
44 | HMGNLEENFRLKAGTEDGAWEFIRYHLGKLPVVNESNGTAIVNAERQAFLLFDRMVAFHIQRGVMVPLSAP | -0.159
45 | HMGNLVDGINKKLTHVRDSLPEGYTLDEFKSAFQQQYPAAYDAYEGDKGKQFDKWLGNVIQSLPKK | 0.137
46 | HMGNNSIDIKDVIYNLVEISQLQAFDIVKHFKTWENLVNKPDELDTVIDGDSDIVDRIKYKIKSLS | -0.568
47 | HMGNQALSSVLSDIAGIGPVKTKELLRVYPDLDSLRQAPVEEVAKVKGIGRQLAQKIHDHFSSR | -0.0357
48 | HMGNRWENLISNKMIDDVDEELLRKYIAQAHDAGRIAISYTDRKTVLNQLELTDGDRLLNAGKVLFSD | -0.657
49 | HMGNTTEVLVATQDVKANTKIKESMFTTERVDTASLPDNYLSADSAKDVVGYYTYIGFTKGSVISKSNIAT | 0.0364
50 | HMGNVRSWKGWTSAGGTRVQMRQGDSINSMARRYGVPIQAIVAVNGIDDPAKVQPGQSVIIPTYVY | 0.118

Row | Sequence | soluble fraction (log2)
51 | HMGNWEQQLRSWADGELATGKQDILTTAVPAFERALIETALSHTNGRKRDAAELLGWGRNTLTRKLKELGM | -0.46
52 | HMGNYEEAILAFEAAIKIDPKNADAYRKLAEAYEKTGDEDAALRTLETGAEATGDRELADLAEKKRQELDA | 0.22
53 | HMGPASTGAHQLGLKPGDEVTHRAWGEGVVTSTTGEGDRAEAVVDFDAVGEKRLLLAWAPLER | -0.705
54 | HMGPDTVDRTRRFKWVDNEVVVNFGKNAGRTLRDLAENDPGFLRWIVRSDFSDEVRTIANDALMGKFPTRK | -0.151
55 | HMGPEAFPVPYVVDIELDRAIYVIEQSGFIVGQKLEANDNNVPRGFVISQNPPAGTKLGPESIVDLVVSS | -0.281
56 | HMGPLDIAQLKSDFLGGDAQLARRAWDQLATKAGDEGRDFLISSLGSSDPQIRNRVALGIHES | -0.152
57 | HMGPLTMGQRIVRLRTQAGLSQDALAEQLGVSRQSVSKWETDGSVPDLDRLVKLSKVFGVTLDELVKG | ≥ 0.43
58 | HMGPPAVGAKLQVLRQARKLSLDELSRRAGVSKSMLSQVERNLANPTVAVLWRLATALGVGLADFLSP | -0.524
59 | HMGPRVSAGPGRHRVQPGDTLDDIAARYRVSSRDLMLVNGLRNANHVEAGQTLKLPSNAVIA | ≥ 0.43
60 | HMGPSLIRIASNPVAEVFIDGTRVGTTPFEMPADGTLKTVRLTAKDHDDLVVPLRSMKSMEIMLTLRRI | -0.136
61 | HMGPTLTDEEEVVLNLLEKNHPVLLSELKENAGLSNKKWDKAIKGLSAHKLAKVTKTDDGLFVHLS | -0.167
62 | HMGPTPTSAQLTEAKRLRTKLDDLNPELAERLWSEHREPYTETQYQTLIEKLAAEVQSAEGEIGR | 0.351
63 | HMGPVRRDLEINGRMVPLTIREHARATRITLRIEPGGQALRLTIPPGLPTREVDSFLTRHHGWLMTKLAHI | 0.0131
64 | HMGPWTETAAKGDAVSKRMLITWLQENADAEFLAAQKLTGQATSVAKRVTKDQLVELYLSVTTAA | -0.149
65 | HMGQAAHYEGVKGDGESDTDVISRVLTAAGAEAQKDDIFVVKELIAGGKYSYTAYVYDGSVWAAM | -0.502
66 | HMGQAEEVRYSTFLDEVRNGRIEQVVLQGEHIIGTRKDKTVFSVFNPETDYTALIGTLSKSGVTIEGRP | 0.103
67 | HMGQARQSAIRELGNDPTSGKKITVRSGRYGPYVTDGEVNASLRKGDDPQTIDLDRAIELLAARREKLG | -0.324
68 | HMGQDGFIGLEAAKKLVLQKLGLTSAEFIKAELDAEDRKYELELIVDGIEYDFDIDAYSGAFLKQEQETV | 0.122
69 | HMGQEEKDIFLKLINISGIGPKLALNILSGIEASELEEAVRNTNVTRLSMVPGIGQKTALRIIMELSDKLE | -0.881
70 | HMGQELTMPDLKSMSRSNAEEKLKKMGLKLGAVFEENAKEPAGTVINQDPRSGSKITKGQTVDITVSLGEK | 0.0104
71 | HMGQERAVPDVKGQSFDMAQGNISRAGLKAVVTDSVYDSYARPGTVVEQSPIPLAKIKRGGTVYLTLVA | -0.0752
72 | HMGQGSAFVYYEVLPKQTEYSLTRKLGLGYADLLSLNPQLARGLQAGMVLKIPRDKAGNLEVKNDLILE | 0.165
73 | HMGQISLSVNAIPEKAEVILDGNSIGNTPIRKNTITPGSHMFEIEKKGYAPISYDIYVNPSKAINLDFFM | -0.153
74 | HMGQKDYKTRLQEYFAKQGLKVNYEDTSHGPDHNKNFSTDVFLDGKIIGSGIGKSKKSSQQSAAKDALNIL | ≥ 0.43
75 | HMGQLIGKEEAKQIALSRAGVAEGDISRYESELDTDDGKTKYEISFHVGRVEYDIEINAVTGAVEKFEMDN | 0.0113
